The source of these data is US20140072580, “NOVEL TARGETS FOR TREATMENT OF HYPERCHOLESTEROLEMIA” (THE REGENTS OF THE UNIVERSITY OF CALIFORNIA, published 2014).

Data set [1] deals with T1, LXR/RXR heterodimer (LXRalpha (NR1H3)/RXR; isoforms in EMSA not stated) (UniProt Q9Z0Y9;P28700 Q9Z0Y9:1-445,P28700:1-467).
T1 sequence 1: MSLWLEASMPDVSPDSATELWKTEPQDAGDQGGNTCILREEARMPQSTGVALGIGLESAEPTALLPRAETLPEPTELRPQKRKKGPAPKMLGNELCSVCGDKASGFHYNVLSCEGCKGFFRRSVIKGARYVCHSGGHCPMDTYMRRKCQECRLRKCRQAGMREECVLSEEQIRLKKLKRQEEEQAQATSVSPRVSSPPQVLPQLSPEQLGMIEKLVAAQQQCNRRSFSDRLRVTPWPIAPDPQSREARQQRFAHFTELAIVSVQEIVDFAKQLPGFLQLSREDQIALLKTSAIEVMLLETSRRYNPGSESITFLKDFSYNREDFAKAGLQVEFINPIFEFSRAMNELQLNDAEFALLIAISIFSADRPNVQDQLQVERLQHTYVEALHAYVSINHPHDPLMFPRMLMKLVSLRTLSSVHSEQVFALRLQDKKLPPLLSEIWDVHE
T1 sequence 2: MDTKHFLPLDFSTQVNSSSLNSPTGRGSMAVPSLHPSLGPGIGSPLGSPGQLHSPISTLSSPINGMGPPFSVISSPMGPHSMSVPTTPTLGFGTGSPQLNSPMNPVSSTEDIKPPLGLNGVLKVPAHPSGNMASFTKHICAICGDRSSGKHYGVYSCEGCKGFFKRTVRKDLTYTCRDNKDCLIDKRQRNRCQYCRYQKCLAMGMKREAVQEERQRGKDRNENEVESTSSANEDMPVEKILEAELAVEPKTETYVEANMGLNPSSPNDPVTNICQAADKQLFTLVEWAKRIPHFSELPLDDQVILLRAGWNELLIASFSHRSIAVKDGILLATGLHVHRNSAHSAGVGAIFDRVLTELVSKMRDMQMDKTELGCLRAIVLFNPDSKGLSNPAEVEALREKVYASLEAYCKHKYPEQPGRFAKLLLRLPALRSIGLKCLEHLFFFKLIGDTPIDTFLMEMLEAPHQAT
The data set can be described thus: EMSA; binding competed by excess unlabeled Mylip LXRE; protein source not stated. The settings on record: label: radiolabeled. The procedure:
(§1) It also could not be secondary to induction of SREBP-1c, because oxysterols that block SREBP processing still induced Mylip expression (FIG. 6B). LXRs activate target genes by binding to consensus elements (LXREs) in their promoters. We identified an LXRE approximately 2.5 kb upstream of the mouse Mylip translation start site (FIG. 6C) and generated a reporter construct encompassing this region.
(§2) A 10 Kb promotor region upstream of the mMylip transcription initiation site was analyzed for the presence of LXR binding elements. A consensus DR4 site was identified 2454 upstream of the transcription initiation site. Olignoucleotides encompassing this element were designed, annealed and tested for binding to LXR/RXR heterodimers in a standard EMSA assay. A 2.5 kB promotor fragment upstream of the transcription initiation site containing the identified LXRE was amplified by PCR from BAC clone RP23-17N24 using mMylip-prom-FWD […] (SEQ ID NO:20) or mMylip-prom-ΔFWD […] (SEQ ID NO:21) with the common antisense primer mMylip-prom-REV […] (SEQ ID NO:22). Amplified fragments were cloned as SacI/XhoI fragments into pGL3 basic (Promega). Promotor analysis was done as previously described (Joseph et al. (2002) J Biol Chem 277: 11019).
(In EMSA bound probe runs differently from free probe, usually more slowly.)

In data set [2] the target is T1, LXR/RXR heterodimer (LXRalpha …). The data set can be described thus: EMSA; no binding to mutant LXRE. As to conditions: label: radiolabeled. The procedure:
as §1, §2

B1: Mylip WT DR4 LXRE (dsDNA)
DNA 1: TCCCTACTTAACCTACAATGACCTCAAGTTTC
DNA 2: GAAACTTGAGGTCATTGTAGGTTAAGTAGGGA
B1: the binding result in data set [1] is “binds”.

B2: Mylip MUT DR4 LXRE (dsDNA)
DNA 1: TCCCTACTTATTCTACAATGTTCTCAAGTTTC
DNA 2: GAAACTTGAGAACATTGTAGAATAAGTAGGGA
Turning to B2, the binding result in data set [2] is reported as “no binding”.
